The supplement of paper PMC10126150
± gives the standard deviation of the averaged measurements.

Tested on: ATP
Assay: switch fluorescence ratio, 500 uM ATP over buffer (Cy3 cluster intensity, sum of 5 cycles each) (fold (ratio)); higher = stronger signal-on switching upon ATP binding; sequences stand for … in TCGTCGGCAGCGTCAGATGTGTATAAGAGACAGTTTTTTTTTTTTTTTTTTTTTTTTT…TC
Conditions: aptamer strand: ATP DNA aptamer (quencher-CACCTGGGGGAGTATTGCGGAGGAAGG + anchor), 100 nM annealed; ATP concentration: 500 uM
Outline: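 The quencher-labelled ATP aptamer, at 100 nM, was annealed to Cy3-labelled switching-strand clusters on a modified Illumina MiSeq flow-cell. The clusters were imaged in selection buffer, then after 15 min with 500 uM ATP at 22 °C, and this buffer/ATP cycle ran five times with NaOH stripping and re-annealing between runs. Per-cluster fluorescence ratios, summed target-cycle over summed buffer-cycle Cy3 intensity, were averaged per switch-domain sequence. Clusters outside 100-1000 RFU were excluded.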
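Note: ATP exposure 15 min at 22 °C before imaging.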

| Sequence | switch fluorescence ratio |
| --- | --- |
| CTGGGATGGG | 1.06 ± 0.13 |
| ACTTGGTTGT | 0.992 ± 0.013 |
| GCACGTGCGT | 1.02 ± 0.035 |
| GACTCTGAGT | 1.01 ± 0.017 |
| AATAATGGGG | 0.981 ± 0.049 |
| GACCATTGTT | 1.01 ± 0.013 |
| ACAGATACAG | 1.07 ± 0.025 |
| TGGGTGATAA | 1.04 ± 0.048 |
| CCAAACAGGA | 1.006 ± 0.0063 |
| ACATTTATGG | 0.999 ± 0.021 |
| CTTATAGTTT | 1.01 ± 0.016 |
| GCGAATTTTG | 0.9994 ± 0.0081 |
| TTTGCGTTTT | 1.01 ± 0.025 |
| GGCTGAATGG | 0.988 ± 0.033 |
| TGTCCTCAGC | 1.51 ± 0.14 |
| CTGTTTTTTG | 0.976 ± 0.03 |
| AAGGGGGCTT | 0.9943 ± 0.0025 |
| TTATACGTAT | 1.04 ± 0.037 |
| AAATGGGAAA | 1.06 ± 0.084 |
| CGTGCATCGA | 1.0092 ± 0.00045 |
| CGGTAGGGTA | 0.991 ± 0.026 |
| TTTTATATTA | 1 ± 0.04 |
| GCGTTACTTA | 1.06 ± 0.018 |

| Sequence | switch fluorescence ratio |
| --- | --- |
| GCGGGAGGGT | 1.015 ± 0.0081 |
| TCAGCATGCG | 0.933 ± 0.025 |
| CTGCTTCGAA | 1.06 ± 0.023 |
| ATGTTGTGTT | 0.9626 ± 0.0029 |
| ATGTTCGTCA | 0.988 ± 0.044 |
| GGTTGGGTTA | 1.033 ± 0.0083 |
| ATGTACTGGG | 1.08 ± 0.043 |
| TTCGGTTTTT | 1.02 ± 0.011 |
| GAGGGATGTA | 1.01 ± 0.022 |
| TTAGTTTTAT | 1 ± 0.027 |
| GGATTACCCT | 1.04 ± 0.015 |
| CAGATATTGG | 1.02 ± 0.023 |
| AAGATCCTTT | 0.986 ± 0.025 |
| TTGAGACTAG | 1 ± 0.015 |
| ATACGACTTA | 1.04 ± 0.014 |
| CGAATCCAGG | 2.46 ± 0.062 |
| GCTTACTGTG | 1.01 ± 0.037 |
| GGTTGTTAGG | 0.9796 ± 0.0055 |
| TCTAGGACGG | 1 ± 0.017 |
| TGACAGTTGG | 1.017 ± 0.0055 |
| CAGGGGAGGG | 1.06 ± 0.09 |
| ATCTGATATT | 1.01 ± 0.033 |
| TTTGGGGAAC | 1.02 ± 0.035 |

| Sequence | switch fluorescence ratio |
| --- | --- |
| AAGCAGTACC | 3.24 ± 0.72 |
| TTGGGTAAGA | 1.02 ± 0.028 |
| GTCAAAGATT | 0.98 ± 0.014 |
| GAGAGGGGGA | 0.97 ± 0.036 |
| TCTAGTCCGA | 1.003 ± 0.009 |
| TGTTGTATAT | 1 ± 0.023 |
| ACAGACTGAA | 1.16 ± 0.019 |
| CGACGATGAC | 5.46 ± 0.077 |
| AATCCCTGGG | 1.07 ± 0.033 |
| CGGTGCCTTG | 0.978 ± 0.026 |
| TGTAGTGTTT | 1.03 ± 0.044 |
| GGGTTGATCG | 0.9875 ± 0.0046 |
| CCAGGTTTGC | 1.08 ± 0.067 |
| AGTTAGTCTG | 1.01 ± 0.04 |
| GGGGGGCCGA | 1.01 ± 0.03 |
| AGGTACTAGG | 1.036 ± 0.0041 |
| AGAGTACTCG | 1.05 ± 0.0048 |
| GCGTCGGGGA | 1 ± 0.047 |
| CTTTTAGTTG | 0.993 ± 0.017 |
| GAACGGCTCT | 1.012 ± 0.0011 |
| GATTTGTGCA | 0.9952 ± 0.0014 |
| AATTTGTAGG | 1 ± 0.02 |
| AGTTGGTTAG | 1.004 ± 0.005 |

| Sequence | switch fluorescence ratio |
| --- | --- |
| GCACTTGTTT | 1 ± 0.028 |
| CTGTGCAAGT | 1.47 ± 0.073 |
| AGTTTTGTTC | 1.01 ± 0.019 |
| ACTAACGGGA | 1.39 ± 0.15 |
| GGCTAATTGG | 0.99 ± 0.026 |
| GATAAGGGGA | 1.03 ± 0.023 |
| GAACTTGCCT | 1 ± 0.018 |
| AGACACCCCT | 1.17 ± 0.073 |
| GCCAATTGCA | 0.97965 ± 0.00047 |
| GGGATTCCGT | 1.05 ± 0.042 |
| TTGTTTTTCG | 0.978 ± 0.027 |
| AGAAGCGACA | 0.994 ± 0.032 |
| AATCGCGGTA | 1.05 ± 0.033 |
| TATGGAATTT | 0.985 ± 0.009 |
| ATTTTTTCGC | 0.995 ± 0.015 |
| GCTGGGTTTG | 0.9866 ± 0.0088 |
| TCGTAGGATG | 0.975 ± 0.037 |
| GGTTTAAAAT | 0.9581 ± 0.0094 |
| TTTGATAGTC | 0.966 ± 0.07 |
| CTAATTGAAC | 1.009 ± 0.0032 |
| CGGGAAGGGG | 1.02 ± 0.03 |
| ACGGGTGTAG | 0.989 ± 0.052 |
| TTGAAAATGA | 0.979 ± 0.016 |

| Sequence | switch fluorescence ratio |
| --- | --- |
| CCAAGTGTAT | 1.02 ± 0.055 |
| GGGAGGGAAA | 1.04 ± 0.056 |
| AGTTATTAGG | 1.02 ± 0.032 |
| CTGGTGGTGG | 0.986 ± 0.075 |
| TAGACATCCA | 1.048 ± 0.0045 |
| CTTGGGTATA | 1.25 ± 0.29 |
| TGAGTTATCG | 0.968 ± 0.033 |
| TCGTGTGACC | 1.009 ± 0.0093 |
| AGATTTTGGT | 0.9954 ± 0.0026 |
| TCAAGGTGTT | 1.15 ± 0.062 |
| TCAGATTAGC | 0.998 ± 0.018 |
| AACTTTTAAT | 1.019 ± 0.0032 |
| GGCGGATGGA | 1.01 ± 0.037 |
| TACTACACAC | 1.406 ± 0.013 |
| TCGCAGCAGG | 2.82 ± 0.097 |
| AAGCGGTTG | 1.005 ± 0.006 |
| AGGAATCGGG | 0.993 ± 0.047 |
| GGGGACTCTT | 0.977 ± 0.023 |
| ATGTCACAAA | 1.03 ± 0.059 |
| GATTGCCGGT | 1.01 ± 0.015 |
| TATTGGCTTT | 0.989 ± 0.014 |
| CGTCGAGTGC | 0.962 ± 0.011 |
| AAACTTGTAA | 1.01 ± 0.027 |

| Sequence | switch fluorescence ratio |
| --- | --- |
| GGTGGATACA | 1.005 ± 0.0036 |
| GATATGTGTG | 0.991 ± 0.011 |
| TTGGGAAAGA | 1.21 ± 0.34 |
| AACAAAACAA | 1.04 ± 0.055 |
| CGTTGATTAG | 0.984 ± 0.014 |
| TTTTGCTGGA | 1.02 ± 0.031 |
| TTAATCCCAG | 1.02 ± 0.021 |
| GGACTTGTCT | 1.01 ± 0.053 |
| CGTGGAGGGT | 0.9966 ± 0.0042 |
| CATGTGGGTG | 1 ± 0.047 |
| TAAGGATGTT | 0.974 ± 0.026 |
| ACACTTAAGT | 1.02 ± 0.029 |
| GTCCGGGTGG | 1.05 ± 0.1 |
| TCAGGACGGA | 1.018 ± 0.0015 |
| GGGTAGGGGC | 1.02 ± 0.026 |
| GTGCAATGTA | 1.1 ± 0.015 |
| TCCTTCCGGG | 2.16 ± 0.19 |
| GGAGAATTTA | 1.02 ± 0.034 |
| CAGGGTAACT | 1.04 ± 0.066 |
| TGTGTTAATA | 0.966 ± 0.013 |
| CCGTCATCTT | 1.024 ± 0.0072 |
| ATGTAGCGGT | 1.12 ± 0.013 |
| GGGGTAGTTT | 1.02 ± 0.027 |

| Sequence | switch fluorescence ratio |
| --- | --- |
| GATTTAGGCA | 0.986 ± 0.015 |
| GACCTTAATT | 1.01 ± 0.025 |
| ATTTTAAGCG | 1.01 ± 0.014 |
| GCTTTTGCAC | 1.028 ± 0.0078 |
| TTCCGGAGGG | 1.02 ± 0.063 |
| GCCAGTTTGT | 0.9807 ± 0.0052 |
| TGGCACATAT | 1.04 ± 0.054 |
| TGGTTTCTTG | 0.963 ± 0.042 |
| CGGGTATTCT | 0.974 ± 0.046 |
| CGATGTTATG | 1.02 ± 0.022 |
| CACGAGTTAG | 1.0257 ± 0.00055 |
| GCTGTTAGCA | 1.02 ± 0.034 |
| AGGGGTCCGT | 0.969 ± 0.018 |
| GGTTGATAGA | 1.01 ± 0.028 |
| CCGAGATCGT | 1.02 ± 0.033 |
| AGGGTCGGCG | 1.01 ± 0.027 |
| AAGATCACGG | 0.971 ± 0.057 |
| ACGAAAGTCT | 1.03 ± 0.041 |
| AGACTGGAGC | 1.06 ± 0.026 |
